Experimental data: paper PMC5574551

How the values were obtained:
[1] = target: taxol-stabilized microtubules (porcine brain tubulin) (porcine) (UniProt P02550); assay: single molecule observation (TIRF microscopy); 1 nM GFP-labeled dynactin isoform, mutant or fragment alone on taxol-stabilized microtubules held on glass; SM buffer, 1 mM ATP, 25°C; total residence time in a window of 10 s and 10 μm of microtubule
[2] = target: taxol-stabilized microtubules (porcine brain tubulin) (porcine) (UniProt P02550); assay: single molecule observation (TIRF microscopy); as a2, 1 nM Alexa 647-labeled dynein with 2 nM p135 isoform
[3] = target: dynactin complex containing the DCTN1B (1B) isoform (human (cDNA from HEK293 cells) | human (endogenous in HEK293)) (UniProt Q13561); assay: pull-down; TALON Dynabeads pull-down of purified proteins; dynein and dynactin mixed in 10 mM Pipes-NaOH pH 7.0, 75 mM NaCl, 45 mM imidazole, 0.01% Tween 20, 10 min at 25°C; bound and unbound fractions on SDS-PAGE, dynein heavy chain band quantified by densitometry
[4] = target: taxol-stabilized microtubules (porcine brain tubulin) (porcine) (UniProt P02550); assay: single molecule observation (TIRF microscopy); as a2, 1 nM Alexa 647-labeled dynein with 20 nM BICD2 (full length), no dynactin
[5] = target: taxol-stabilized microtubules (porcine brain tubulin) (porcine) (UniProt P02550); assay: single molecule observation (TIRF microscopy); as a2, 1 nM Alexa 647-labeled dynein with 2 nM 1B isoform and 20 nM BICD2 (DDB 1B)
[6] = target: taxol-stabilized microtubules (porcine brain tubulin) (porcine) (UniProt P02550); assay: single molecule observation (TIRF microscopy); as a2, 1 nM Alexa 647-labeled dynein with 2 nM 1BΔCC1 mutant
[7] = target: taxol-stabilized microtubules (porcine brain tubulin) (porcine) (UniProt P02550); assay: single molecule observation (TIRF microscopy); 1 nM Alexa 647-labeled dynein alone on taxol-stabilized microtubules held on glass by anti-β tubulin antibody; SM buffer (12 mM Pipes-KOH pH 6.8, 25 mM KAce, 1 mM ATP, 2 mM DTT), 25°C; total residence time in a window of 10 s and 10 μm of microtubule
[8] = target: taxol-stabilized microtubules (porcine brain tubulin) (porcine) (UniProt P02550); assay: single molecule observation (TIRF microscopy); as a2, 1 nM Alexa 647-labeled dynein with 2 nM 1A isoform and 20 nM BICD2 (DDB 1A)
[9] = target: taxol-stabilized microtubules (porcine brain tubulin) (porcine) (UniProt P02550); assay: single molecule observation (TIRF microscopy); as a2, 1 nM Alexa 647-labeled dynein with 2 nM 1B isoform, no BICD2
[10] = target: taxol-stabilized microtubules (porcine brain tubulin) (porcine) (UniProt P02550); assay: single molecule observation (TIRF microscopy); as a2, 1 nM Alexa 647-labeled dynein with 2 nM 1A isoform, no BICD2

fraction not dissociated from microtubules during the observation of 30 s [1] [%] | total residence time on microtubules [1] [s] | total residence time on microtubules (with p135 isoform) [2] [s] | Kd [3] [nM] | stoichiometry N [3] | total residence time on microtubules (with BICD2) [4] [s] | total residence time on microtubules (with 1B isoform and BICD2) [5] [s] | total residence time on microtubules (with 1BΔCC1 mutant) [6] [s] | total residence time on microtubules [7] [s] | total residence time on microtubules (with 1A isoform and BICD2) [8] [s] | duration on microtubules, τ (with 1B isoform) [9] [s] | total residence time on microtubules (with 1B isoform) [9] [s] | fraction not dissociated from microtubules during the observation of 30 s (with 1A isoform) [10] [%] | total residence time on microtubules (with 1A isoform) [10] [s] | Substance
72 | 60.1 | – | – | – | – | – | – | – | – | – | – | – | – | dynactin complex containing the DCTN1A (1A) isoform (from UniProt Q14203-1 1-1278; Q13561 1-401; P61163 1-376)
– | 50 | – | – | – | – | – | – | – | – | – | – | – | – | dynactin complex containing the 1BΔCC1 mutant of DCTN1 (from UniProt P61163 1-376)
– | – | 23.8 | 2.3 | 1 | 51.8 | 19.2 | 54 | 64.9 | 49.1 | 1.2 | 4.7 | 79 | 53.2 | cytoplasmic dynein (recombinant dynein complex), Q14204 1-4646
